Assay results as given in US20250027939A1.

Biological target: S protein (UniProt P61823)
Test: affinity column capture; EGFP fluorescence of column fractions as percent of input

Chain of UniProt P61823 (P61823 47-150): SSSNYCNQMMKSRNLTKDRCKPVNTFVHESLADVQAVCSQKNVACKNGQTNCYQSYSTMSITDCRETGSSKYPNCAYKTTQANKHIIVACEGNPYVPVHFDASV

Question: Which percent of input target protein bound does the source give for S tag-bearing target protein (EGFP) here?
Answer: The percent of input target protein bound was 50%.
